According to paper PMC3480732:

Tests used:
[1] = transcriptional activity assay; settings: glycan lost; control: wild type
[2] = IP, anti-ubiquitin blot with MG132, HEK 293T; settings: control: wild type
[3] = Figure S3B, method not described in text; settings: glycan lost; control: wild type

Row | Protein | other: transcriptional activity [1] | other: ubiquitination ([2]; glycan lost) | other: phosphorylation [3] | other: ubiquitination ([2]; glycan gained)
1 | PGC-1α: S333A (protein) parent chain: MAWDMCSQDSVWSDIECAALVGEDQPLCPDLPELDLSELDVNDLDTDSFLGGLKWCSDQSEIISNQYNNEPANIFEKIDEENEANLLAVLTETLDSLPVDEDGLPSFDALTDGAVTTDNEASPSSMPDGTPPPQEAEEPSLLKKLLLAPANTQLSYNECSGLSTQNHAANHTHRIRTNPAIVKTENSWSNKAKSICQQQKPQRRPCSELLKYLTTNDDPPHTKPTENRNSSRDKCASKKKSHTQPQSQHAQAKPTTLSLPLTPESPNDPKGSPFENKTIERTLSVELSGTAGLTPPTTPPHKANQDNPFKASPKLKPSCKTVVPPPTKRARYSECSGTQGSHSTKKGPEQSELYAQLSKSSGLSRGHEERKTKRPSLRLFGDHDYCQSLNSKTDILINISQELQDSRQLDFKDASCDWQGHICSSTDSGQCYLRETLEASKQVSPCSTRKQLQDQEIRAELNKHFGHPCQAVFDDKSDKTSELRDGDFSNEQFSKLPVFINSGLAMDGLFDDSEDESDKLSYPWDGTQPYSLFDVSPSCSSFNSPCRDSVSPPKSLFSQRPQRMRSRSRSFSRHRSCSRSPYSRSRSRSPGSRSSSRSCYYYESSHYRHRTHRNSPLYVRSRSRSPYSRRPRYDSYEAYEHERLKRDEYRKEHEKRESERAKQRERQKQKAIEERRVIYVGKIRPDTTRTELRDRFEVFGEIEECTVNLRDDGDSYGFITYRYTCDAFAALENGYTLRRSNETDFELYFCGRKQFFKSNYADLDTNSDDFDPASTKSKYDSLDFDSLLKEAQRSLRR | no change | increases | no change | 
2 | PGC-1α: OGT overexpression (protein) parent chain: MAWDMCSQDSVWSDIECAALVGEDQPLCPDLPELDLSELDVNDLDTDSFLGGLKWCSDQSEIISNQYNNEPANIFEKIDEENEANLLAVLTETLDSLPVDEDGLPSFDALTDGAVTTDNEASPSSMPDGTPPPQEAEEPSLLKKLLLAPANTQLSYNECSGLSTQNHAANHTHRIRTNPAIVKTENSWSNKAKSICQQQKPQRRPCSELLKYLTTNDDPPHTKPTENRNSSRDKCASKKKSHTQPQSQHAQAKPTTLSLPLTPESPNDPKGSPFENKTIERTLSVELSGTAGLTPPTTPPHKANQDNPFKASPKLKPSCKTVVPPPTKRARYSECSGTQGSHSTKKGPEQSELYAQLSKSSGLSRGHEERKTKRPSLRLFGDHDYCQSLNSKTDILINISQELQDSRQLDFKDASCDWQGHICSSTDSGQCYLRETLEASKQVSPCSTRKQLQDQEIRAELNKHFGHPCQAVFDDKSDKTSELRDGDFSNEQFSKLPVFINSGLAMDGLFDDSEDESDKLSYPWDGTQPYSLFDVSPSCSSFNSPCRDSVSPPKSLFSQRPQRMRSRSRSFSRHRSCSRSPYSRSRSRSPGSRSSSRSCYYYESSHYRHRTHRNSPLYVRSRSRSPYSRRPRYDSYEAYEHERLKRDEYRKEHEKRESERAKQRERQKQKAIEERRVIYVGKIRPDTTRTELRDRFEVFGEIEECTVNLRDDGDSYGFITYRYTCDAFAALENGYTLRRSNETDFELYFCGRKQFFKSNYADLDTNSDDFDPASTKSKYDSLDFDSLLKEAQRSLRR |  |  |  | decreases
